Laboratory results reported in the supplement of paper PMC10065799, “High-throughput profiling of sequence recognition by tyrosine kinases and SH2 domains using bacterial peptide display” (eLife, 2023).

Experiments:
SHP2-C SH2 = experiment: SH2 binding enrichment of the phosphorylated peptide, bacterial display (enrichment ratio); higher = better substrate or ligand; peptides without Tyr show the background
c-Src SH2 = experiment: as above
Grb2 SH2 = Grb2 SH2 (UniProt P62993); experiment: as above
Sequence of Grb2 SH2 (P62993 whole entry, looked up): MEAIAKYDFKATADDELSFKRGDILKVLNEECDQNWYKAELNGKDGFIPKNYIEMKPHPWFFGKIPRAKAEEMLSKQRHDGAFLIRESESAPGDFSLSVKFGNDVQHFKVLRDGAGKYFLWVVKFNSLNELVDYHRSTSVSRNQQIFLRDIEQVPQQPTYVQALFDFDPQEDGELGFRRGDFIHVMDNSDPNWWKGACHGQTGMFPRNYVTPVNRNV

EPHB2 = EPHB2 (UniProt P29323); experiment: phosphorylation enrichment, bacterial display (enrichment ratio); higher = better substrate or ligand; peptides without Tyr show the background
Fes = Fes (UniProt P07332); experiment: as above
FGFR1 = FGFR1 (UniProt P11362); experiment: as above
Sequence of FGFR1 (P11362 whole entry, looked up): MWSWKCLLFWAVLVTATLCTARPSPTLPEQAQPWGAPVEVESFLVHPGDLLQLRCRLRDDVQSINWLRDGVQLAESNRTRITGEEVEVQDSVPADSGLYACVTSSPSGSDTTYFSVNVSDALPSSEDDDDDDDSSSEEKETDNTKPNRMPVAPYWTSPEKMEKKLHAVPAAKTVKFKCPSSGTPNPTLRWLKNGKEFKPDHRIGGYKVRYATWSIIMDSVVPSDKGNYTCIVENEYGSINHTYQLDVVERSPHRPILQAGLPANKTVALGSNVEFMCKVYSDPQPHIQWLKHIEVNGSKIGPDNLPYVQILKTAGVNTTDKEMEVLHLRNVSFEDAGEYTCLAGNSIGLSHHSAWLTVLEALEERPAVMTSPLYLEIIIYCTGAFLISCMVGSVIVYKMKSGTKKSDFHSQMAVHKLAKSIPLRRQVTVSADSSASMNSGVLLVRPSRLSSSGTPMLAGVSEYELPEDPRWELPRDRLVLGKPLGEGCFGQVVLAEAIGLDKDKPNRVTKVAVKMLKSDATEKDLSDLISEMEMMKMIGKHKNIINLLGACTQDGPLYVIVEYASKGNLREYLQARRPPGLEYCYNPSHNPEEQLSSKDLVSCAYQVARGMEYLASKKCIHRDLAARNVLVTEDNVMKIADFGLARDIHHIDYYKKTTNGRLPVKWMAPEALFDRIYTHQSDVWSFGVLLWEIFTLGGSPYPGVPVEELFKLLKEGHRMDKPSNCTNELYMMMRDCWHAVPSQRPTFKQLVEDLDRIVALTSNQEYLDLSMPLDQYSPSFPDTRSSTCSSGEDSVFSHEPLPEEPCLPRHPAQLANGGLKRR

EPHB1 = EPHB1 (UniProt P54762); experiment: as above
c-Src = experiment: as above
MERTK = MERTK (UniProt Q12866); experiment: as above
Sequence of MERTK (Q12866 whole entry, looked up): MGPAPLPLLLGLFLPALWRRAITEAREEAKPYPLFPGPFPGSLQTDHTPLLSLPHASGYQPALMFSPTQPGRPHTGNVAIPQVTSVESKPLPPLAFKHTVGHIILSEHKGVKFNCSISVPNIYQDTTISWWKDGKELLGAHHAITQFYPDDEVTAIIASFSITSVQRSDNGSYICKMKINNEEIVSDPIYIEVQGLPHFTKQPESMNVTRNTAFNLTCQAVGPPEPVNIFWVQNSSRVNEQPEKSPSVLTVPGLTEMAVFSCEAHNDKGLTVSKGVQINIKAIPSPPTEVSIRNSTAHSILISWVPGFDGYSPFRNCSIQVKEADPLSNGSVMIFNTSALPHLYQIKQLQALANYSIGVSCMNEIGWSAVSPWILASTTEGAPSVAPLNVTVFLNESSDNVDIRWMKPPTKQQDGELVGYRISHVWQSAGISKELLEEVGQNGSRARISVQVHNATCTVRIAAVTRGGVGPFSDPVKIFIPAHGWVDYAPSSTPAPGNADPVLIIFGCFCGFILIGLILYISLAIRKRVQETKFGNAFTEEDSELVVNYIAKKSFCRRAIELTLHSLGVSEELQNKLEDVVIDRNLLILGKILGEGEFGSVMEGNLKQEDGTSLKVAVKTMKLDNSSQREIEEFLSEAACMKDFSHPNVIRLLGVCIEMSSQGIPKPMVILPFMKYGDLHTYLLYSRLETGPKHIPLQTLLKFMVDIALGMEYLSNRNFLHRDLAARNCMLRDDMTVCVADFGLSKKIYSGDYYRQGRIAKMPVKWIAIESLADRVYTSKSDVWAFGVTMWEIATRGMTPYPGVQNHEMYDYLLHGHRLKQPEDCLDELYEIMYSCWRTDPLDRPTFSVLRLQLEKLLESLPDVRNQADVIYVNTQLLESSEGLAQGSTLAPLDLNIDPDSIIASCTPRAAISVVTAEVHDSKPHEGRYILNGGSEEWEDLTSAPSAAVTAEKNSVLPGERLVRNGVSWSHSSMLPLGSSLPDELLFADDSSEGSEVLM

Jak2 = Jak2 (UniProt O60674); experiment: as above
Sequence of Jak2 (O60674 whole entry, looked up): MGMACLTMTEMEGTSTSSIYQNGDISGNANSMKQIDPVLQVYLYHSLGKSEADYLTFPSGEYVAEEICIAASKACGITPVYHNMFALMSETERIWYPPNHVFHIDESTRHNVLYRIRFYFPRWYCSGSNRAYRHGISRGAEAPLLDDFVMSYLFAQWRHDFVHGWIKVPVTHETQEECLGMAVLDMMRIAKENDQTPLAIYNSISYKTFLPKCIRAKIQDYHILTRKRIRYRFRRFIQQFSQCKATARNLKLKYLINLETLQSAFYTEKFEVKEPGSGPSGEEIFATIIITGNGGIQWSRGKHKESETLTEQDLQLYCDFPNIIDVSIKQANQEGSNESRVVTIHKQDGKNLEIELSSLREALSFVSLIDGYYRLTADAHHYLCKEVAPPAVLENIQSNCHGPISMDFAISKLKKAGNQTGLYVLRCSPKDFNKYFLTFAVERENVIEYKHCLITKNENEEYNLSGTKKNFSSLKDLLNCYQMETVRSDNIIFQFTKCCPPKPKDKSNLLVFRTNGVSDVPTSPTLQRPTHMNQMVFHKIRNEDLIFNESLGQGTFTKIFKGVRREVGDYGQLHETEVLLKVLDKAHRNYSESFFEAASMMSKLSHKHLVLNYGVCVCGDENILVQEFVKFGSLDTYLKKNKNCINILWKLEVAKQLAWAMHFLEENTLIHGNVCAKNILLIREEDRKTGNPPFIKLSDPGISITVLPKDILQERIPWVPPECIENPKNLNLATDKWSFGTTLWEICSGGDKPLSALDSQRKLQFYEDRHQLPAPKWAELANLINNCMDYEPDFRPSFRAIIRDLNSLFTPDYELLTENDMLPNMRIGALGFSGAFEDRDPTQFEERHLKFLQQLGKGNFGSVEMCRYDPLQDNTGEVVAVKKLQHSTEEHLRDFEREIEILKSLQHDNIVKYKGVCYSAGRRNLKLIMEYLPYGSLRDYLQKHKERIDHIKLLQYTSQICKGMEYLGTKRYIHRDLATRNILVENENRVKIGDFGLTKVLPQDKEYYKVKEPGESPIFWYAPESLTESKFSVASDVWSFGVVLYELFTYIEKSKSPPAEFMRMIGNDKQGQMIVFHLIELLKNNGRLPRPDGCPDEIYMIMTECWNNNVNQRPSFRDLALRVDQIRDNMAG

c-Abl (mouse) = experiment: as above
Fyn = Fyn (UniProt P06241); experiment: as above
Sequence of Fyn (P06241 whole entry, looked up): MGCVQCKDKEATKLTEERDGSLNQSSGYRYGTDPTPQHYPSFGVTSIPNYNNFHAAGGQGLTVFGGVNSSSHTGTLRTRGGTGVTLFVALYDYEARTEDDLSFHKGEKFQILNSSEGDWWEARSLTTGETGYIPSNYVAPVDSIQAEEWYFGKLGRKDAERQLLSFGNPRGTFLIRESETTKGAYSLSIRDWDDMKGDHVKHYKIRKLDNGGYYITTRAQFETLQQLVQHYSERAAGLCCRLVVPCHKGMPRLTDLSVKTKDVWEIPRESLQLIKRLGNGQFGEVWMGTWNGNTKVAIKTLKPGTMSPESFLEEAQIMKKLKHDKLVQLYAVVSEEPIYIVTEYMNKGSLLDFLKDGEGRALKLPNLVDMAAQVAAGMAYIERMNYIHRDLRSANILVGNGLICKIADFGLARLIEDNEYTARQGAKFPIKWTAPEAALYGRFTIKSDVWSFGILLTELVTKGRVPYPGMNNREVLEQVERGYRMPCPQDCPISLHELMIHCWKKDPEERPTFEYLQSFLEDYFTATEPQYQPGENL

FGFR3 = FGFR3 (UniProt P22607); experiment: as above
Sequence of FGFR3 (P22607 whole entry, looked up): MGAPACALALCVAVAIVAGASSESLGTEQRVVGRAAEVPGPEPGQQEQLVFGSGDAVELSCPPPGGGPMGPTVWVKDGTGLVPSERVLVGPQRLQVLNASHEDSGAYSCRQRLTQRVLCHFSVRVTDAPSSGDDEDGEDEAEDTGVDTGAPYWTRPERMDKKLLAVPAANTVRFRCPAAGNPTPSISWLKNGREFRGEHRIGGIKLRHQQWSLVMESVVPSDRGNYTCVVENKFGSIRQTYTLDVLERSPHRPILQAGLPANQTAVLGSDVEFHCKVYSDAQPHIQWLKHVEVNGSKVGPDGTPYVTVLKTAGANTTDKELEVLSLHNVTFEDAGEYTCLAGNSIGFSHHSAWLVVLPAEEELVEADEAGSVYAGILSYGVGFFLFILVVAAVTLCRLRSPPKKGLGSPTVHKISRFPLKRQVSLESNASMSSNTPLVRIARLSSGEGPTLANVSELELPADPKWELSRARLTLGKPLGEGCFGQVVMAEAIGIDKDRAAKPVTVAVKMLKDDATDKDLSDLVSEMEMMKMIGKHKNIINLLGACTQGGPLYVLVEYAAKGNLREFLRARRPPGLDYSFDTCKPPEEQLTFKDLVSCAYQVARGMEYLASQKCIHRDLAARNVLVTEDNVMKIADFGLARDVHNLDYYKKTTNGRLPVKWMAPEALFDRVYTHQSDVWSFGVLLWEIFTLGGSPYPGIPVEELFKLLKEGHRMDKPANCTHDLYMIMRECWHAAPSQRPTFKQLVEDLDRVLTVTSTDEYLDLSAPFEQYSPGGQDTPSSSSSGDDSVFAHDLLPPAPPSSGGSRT

AncSZ = experiment: as above
Fer (mouse) = experiment: as above
Hck = Hck (UniProt P08631); experiment: as above
Sequence of Hck (P08631 whole entry, looked up, the tested form may be a part): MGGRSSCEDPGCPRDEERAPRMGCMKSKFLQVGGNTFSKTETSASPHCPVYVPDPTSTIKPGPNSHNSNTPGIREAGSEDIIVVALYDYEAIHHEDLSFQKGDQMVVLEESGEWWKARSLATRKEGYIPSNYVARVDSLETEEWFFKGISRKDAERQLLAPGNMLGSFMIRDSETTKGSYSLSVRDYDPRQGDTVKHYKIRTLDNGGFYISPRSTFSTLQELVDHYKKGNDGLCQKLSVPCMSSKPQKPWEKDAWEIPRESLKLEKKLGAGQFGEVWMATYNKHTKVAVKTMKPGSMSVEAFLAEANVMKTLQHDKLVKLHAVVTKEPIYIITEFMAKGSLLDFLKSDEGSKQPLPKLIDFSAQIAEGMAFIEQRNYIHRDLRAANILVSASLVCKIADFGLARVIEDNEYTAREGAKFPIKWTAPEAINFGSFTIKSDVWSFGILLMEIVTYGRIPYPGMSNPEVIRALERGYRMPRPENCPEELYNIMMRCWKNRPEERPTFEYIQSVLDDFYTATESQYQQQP
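Throughout, for SH2 binding enrichment of the phosphorylated peptide, bacterial display: peptide library displayed on the E. coli surface as eCPX fusions, selected cells deep-sequenced, score is each peptide's frequency after selection divided by its frequency in the input.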
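Throughout, for phosphorylation enrichment, bacterial display: 11-residue human phosphosite peptides and single-mutation variants displayed on the E. coli surface, counted by deep sequencing, each peptide's frequency after selection divided by its frequency in the unselected input library; frequency after pTyr selection over input frequency; kinase dosed for 20-30% of maximal phosphorylation in three min.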

| Sequence | SH2 binding enrichment (SHP2-C SH2) | SH2 binding enrichment (c-Src SH2) | SH2 binding enrichment (Grb2 SH2) | phosphorylation enrichment (EPHB2) | phosphorylation enrichment (Fes) | phosphorylation enrichment (FGFR1) | phosphorylation enrichment (EPHB1) | phosphorylation enrichment (c-Src) | phosphorylation enrichment (MERTK) | phosphorylation enrichment (Jak2) | phosphorylation enrichment (c-Abl (mouse)) | phosphorylation enrichment (Fyn) | phosphorylation enrichment (FGFR3) | phosphorylation enrichment (AncSZ) | phosphorylation enrichment (Fer (mouse)) | phosphorylation enrichment (Hck) |
| --- | --- | --- | --- | --- | --- | --- | --- | --- | --- | --- | --- | --- | --- | --- | --- | --- |
| RKETFYTLSCR [GUCY2C_Y681] | 0.821 | 0.749 | 0.996 | 1.27 | 2.07 | 1.49 | 1.17 | 2.02 | 6.83 | 1.03 | 1.29 | 2.44 | 1.39 | 1.32 | 1 | 1.03 |
| RKLASYQSCLL [DHX37_Y1080_R1081Q] | 0.646 | 0.517 | 0.784 | 0.799 | 1.11 | 1.19 | 0.592 | 0.463 | 0.539 | 2.02 | 0.872 | 0.901 | 1.22 | 1.01 | 0.555 | 0.665 |
| RLAKTYETTLK [ALB_Y377_E382K] | 0.556 | 0.557 | 0.809 | 0.681 | 0.848 | 0.553 | 1 | 0.817 | 0.695 | 0.607 | 1.65 | 0.82 | 0.463 | 0.768 | 0.406 | 0.459 |
| RLLRGHDQSAY [HLA-C_Y137_Y137H] | 0.747 | 0.623 | 0.959 | 0.336 | 0.587 | 0.417 | 0.403 | 0.361 | 0.371 | 0.754 | 0.597 | 0.336 | 0.455 | 0.632 | 0.387 | 0.549 |
| RLLRGYDQFAY [HLA-C_Y137_S140F] | 1.14 | 1.65 | 1.47 | 0.433 | 0.848 | 0.49 | 0.422 | 0.514 | 0.433 | 0.567 | 0.775 | 0.395 | 0.617 | 0.794 | 0.502 | 0.49 |
| RLLRGYDQSAF [HLA-C_Y137_YF] | 0.953 | 0.758 | 1.26 | 0.526 | 0.592 | 0.412 | 0.422 | 0.459 | 0.443 | 0.628 | 0.708 | 0.416 | 0.712 | 0.669 | 0.502 | 0.439 |
| RLRKFYLGKFL [KLB_Y906_YF] | 0.549 | 0.444 | 0.679 | 0.462 | 0.624 | 0.669 | 0.393 | 0.707 | 0.645 | 0.608 | 0.719 | 0.689 | 0.64 | 0.631 | 0.468 | 0.654 |
| RLRKYYLGKYL [KLB_Y906] | 0.441 | 0.341 | 0.594 | 0.661 | 0.728 | 0.584 | 0.429 | 0.701 | 0.73 | 0.662 | 0.454 | 0.707 | 0.528 | 0.601 | 0.538 | 0.571 |
| RLSARYFQGDL [PDK3_Y337_Y334S] | 1.01 | 0.46 | 0.77 | 0.342 | 0.684 | 0.436 | 0.393 | 0.469 | 0.41 | 0.718 | 0.649 | 0.399 | 0.492 | 0.563 | 0.312 | 0.362 |
| RNEAFYDTFST [EFCAB3_Y372_S370A] | 0.842 | 0.801 | 1.05 | 3.35 | 1.14 | 0.652 | 1.98 | 10 | 14.4 | 1.46 | 4.17 | 11.3 | 0.811 | 1.32 | 7.96 | 10.2 |
| RNGDRYFKGIV [DCX_Y64] | 0.714 | 0.548 | 0.995 | 0.619 | 0.632 | 0.444 | 0.335 | 0.455 | 0.433 | 0.626 | 0.664 | 0.665 | 0.483 | 0.709 | 0.549 | 0.419 |
| RNYDTYTAGLS [RHBDD1_Y264] | 0.572 | 0.621 | 0.707 | 14.6 | 0.901 | 0.602 | 7.39 | 1.39 | 0.841 | 0.677 | 0.729 | 1.49 | 0.438 | 0.955 | 0.707 | 5.02 |
| RPFFLYVAFHD [SGSH_Y174] | 0.377 | 0.581 | 0.847 | 0.579 | 1.58 | 0.503 | 0.731 | 0.43 | 0.442 | 1.54 | 1.24 | 0.381 | 0.941 | 1.28 | 0.47 | 0.58 |
| RPSELYYSKIG [SMG1_Y2253] | 1.1 | 4.1 | 0.758 | 0.88 | 1.23 | 3.1 | 1.79 | 5.63 | 20.1 | 1.06 | 1.01 | 1.69 | 1.84 | 1.08 | 1.59 | 11.3 |
| RPSGRYPVARR [SHANK3_Y1569] | 0.514 | 0.464 | 0.541 | 0.567 | 0.611 | 0.669 | 0.734 | 0.782 | 0.664 | 0.619 | 0.677 | 0.985 | 1.05 | 0.782 | 0.695 | 0.767 |
| RQEEEYKRFSE [SFSWAP_Y133_L136F] | 0.66 | 0.609 | 1.27 | 0.88 | 1.95 | 0.712 | 0.779 | 0.554 | 0.682 | 1.11 | 0.831 | 0.602 | 0.918 | 1.41 | 0.663 | 0.648 |
| RRERPYGGGGG [FUS_Y526] | 0.478 | 0.436 | 0.703 | 0.554 | 0.467 | 0.554 | 0.453 | 0.485 | 0.375 | 0.42 | 0.284 | 0.471 | 0.523 | 0.563 | 0.46 | 0.414 |

| Sequence | SH2 binding enrichment (SHP2-C SH2) | SH2 binding enrichment (c-Src SH2) | SH2 binding enrichment (Grb2 SH2) | phosphorylation enrichment (EPHB2) | phosphorylation enrichment (Fes) | phosphorylation enrichment (FGFR1) | phosphorylation enrichment (EPHB1) | phosphorylation enrichment (c-Src) | phosphorylation enrichment (MERTK) | phosphorylation enrichment (Jak2) | phosphorylation enrichment (c-Abl (mouse)) | phosphorylation enrichment (Fyn) | phosphorylation enrichment (FGFR3) | phosphorylation enrichment (AncSZ) | phosphorylation enrichment (Fer (mouse)) | phosphorylation enrichment (Hck) |
| --- | --- | --- | --- | --- | --- | --- | --- | --- | --- | --- | --- | --- | --- | --- | --- | --- |
| RRIHRYRGHLW [VHL_Y112_S111R] | 0.531 | 0.389 | 0.532 | 0.445 | 0.524 | 0.43 | 0.507 | 0.49 | 0.575 | 0.375 | 0.382 | 0.468 | 0.452 | 0.563 | 0.376 | 0.462 |
| RRIHSNRGHLW [VHL_Y112_Y112N] | 0.568 | 0.484 | 0.923 | 0.48 | 0.732 | 0.357 | 0.496 | 0.625 | 0.677 | 0.653 | 0.825 | 0.574 | 0.408 | 0.702 | 0.485 | 0.709 |
| RRIHSYRRHLW [VHL_Y112_G114R] | 0.678 | 0.536 | 0.918 | 0.82 | 0.699 | 0.868 | 0.725 | 0.584 | 0.707 | 0.633 | 0.699 | 0.65 | 0.718 | 0.735 | 0.529 | 0.746 |
| RRNTFYASIAK [ACADM_Y353_YF] | 1.68 | 1.09 | 0.772 | 0.455 | 0.622 | 0.442 | 0.453 | 0.638 | 0.474 | 0.511 | 0.509 | 0.482 | 0.583 | 0.605 | 0.367 | 0.463 |
| RSACTYLAPHL [PLK3_Y615_S618P] | 0.648 | 0.562 | 0.876 | 1.25 | 1.02 | 0.691 | 1.88 | 2.74 | 1.02 | 1.59 | 6.67 | 1.1 | 0.71 | 2.67 | 0.589 | 1.45 |
| RSACTYLASHL [PLK3_Y615] | 0.498 | 0.641 | 1.04 | 0.641 | 0.909 | 0.509 | 0.534 | 0.417 | 0.433 | 0.575 | 0.564 | 0.468 | 0.792 | 0.703 | 0.519 | 0.4 |
| RSAGKYDVFLI [MECP2_Y120_YF] | 0.677 | 0.914 | 1.03 | 0.563 | 0.758 | 0.352 | 0.697 | 0.533 | 0.561 | 0.775 | 0.85 | 0.556 | 0.748 | 0.558 | 0.618 | 0.714 |
| RSDEDYLCREE [POR_Y573_Y575C] | 0.749 | 0.595 | 0.947 | 0.737 | 2.34 | 0.623 | 0.747 | 0.765 | 0.785 | 1.34 | 1.01 | 0.716 | 1.27 | 1.54 | 0.951 | 0.769 |
| RSLLQYGGSAN [ANK1_Y624] | 0.716 | 0.482 | 0.749 | 0.717 | 0.857 | 0.574 | 0.709 | 0.459 | 0.439 | 0.626 | 1.01 | 0.537 | 0.772 | 0.964 | 0.8 | 0.813 |
| RSPLRYTSILT [OR51B6_Y130] | 3.94 | 2.87 | 1.67 | 0.532 | 0.843 | 0.536 | 0.426 | 0.392 | 0.392 | 0.655 | 0.632 | 0.64 | 0.431 | 0.679 | 0.492 | 0.443 |
| RSRQIYDAYIM [GRK3_Y109] | 0.727 | 0.683 | 0.822 | 6.14 | 0.807 | 0.511 | 3 | 11 | 8.17 | 1.15 | 6.11 | 15.2 | 0.8 | 0.914 | 14.6 | 10.4 |
| RSRSSYTHGLN [MYCT1_Y116] | 0.917 | 0.593 | 0.779 | 0.882 | 1.35 | 0.588 | 1 | 1.23 | 0.883 | 0.916 | 0.981 | 0.956 | 0.88 | 1.42 | 0.705 | 0.935 |
| RSSGPYGGGGQ [HNRNPA1_Y341] | 0.623 | 0.606 | 0.961 | 0.485 | 0.686 | 0.589 | 0.466 | 0.56 | 0.625 | 0.485 | 0.643 | 0.715 | 0.441 | 0.811 | 0.518 | 0.616 |
| RSSKMYFKTRS [LPL_Y329_L330F] | 0.747 | 0.459 | 0.884 | 0.567 | 1.22 | 0.701 | 0.685 | 0.856 | 0.712 | 0.989 | 1.07 | 0.667 | 0.561 | 1.2 | 0.764 | 0.634 |
| SEKISYVYMKR [SSX7_Y48_L43S] | 3.87 | 0.993 | 1.15 | 0.504 | 0.967 | 0.6 | 0.553 | 0.444 | 0.385 | 0.964 | 0.538 | 0.469 | 0.748 | 0.912 | 0.387 | 0.479 |
| SELVCYDARVH [MET_Y971_R970C] | 0.739 | 0.561 | 0.874 | 0.673 | 1.14 | 0.547 | 0.592 | 0.482 | 0.496 | 0.867 | 0.721 | 0.603 | 0.679 | 1.07 | 0.49 | 0.816 |
